In the RNAGym collection of RNA variant scans (doi:10.1021/acssynbio.7b00057):

B1: Pistol ribozyme (parent)
chain: GGGUCGUUGUUCCAUAAUCGCGUGGAUAUGGCACGCAAGUUUCUACCGGGCACCGUAAAUGUCCGACUGGAGCCGUUCGGGCGGCUAUAAACAGACCUCAGGCCCGAAGCGUGGCGGCACCUGCCGCCGGUGGUAAAAAAGAUCGGAAGAGCACACGUCU

Variants of: B1
Assay: aptazyme ON/OFF ratio, guanine; higher = stronger switching; co-transcriptional cleavage with and without guanine

Question: Which “aptazyme ON/OFF ratio” value does the source give for GGGUCGUCUCUGAAUAAUCGCGUGGAUAUGGCACGCAAGUUUCUACCGGGCACCGUAAAUGUCCGACUGGAGCCGUUCGGGCGGCUAUAAACAGACCUCAGGCCCGAAGCGUGGCGGCACCUGCCGCCGGUGGUAAAAAAGAUCGGAAGAGCACACGUCU [U8C G9U U10C C12G C13A] here?
Answer: 1.12

Question: For GGGUCGUUCCUGGAUAAUCGCGUGGAUAUGGCACGCAAGUUUCUACCGGGCACCGUAAAUGUCCGACUGGAGCCGUUCGGGCGGCUAUAAACAGACCUCAGGCCCGAAGCGUGGCGGCACCUGCCGCCGGUGGUAAAAAAGAUCGGAAGAGCACACGUCU [G9C U10C C12G C13G], which “aptazyme ON/OFF ratio” value is on record?
Answer: 1.09

Question: Which “aptazyme ON/OFF ratio” value does the source give for GGGUCGCUAUCUGAUAAUCGCGUGGAUAUGGCACGCAAGUUUCUACCGGGCACCGUAAAUGUCCGACUGGAGCCGUUCGGGCGGCUAUAAACAGACCUCAGGCCCGAAGCGUGGCGGCACCUGCCGCCGGUGGUAAAAAAGAUCGGAAGAGCACACGUCU [U7C G9A U11C C12U C13G] here?
Answer: 1.02

Question: For GGGUCGACAAUCGAUAAUCGCGUGGAUAUGGCACGCAAGUUUCUACCGGGCACCGUAAAUGUCCGACUGGAGCCGUUCGGGCGGCUAUAAACAGACCUCAGGCCCGAAGCGUGGCGGCACCUGCCGCCGGUGGUAAAAAAGAUCGGAAGAGCACACGUCU [U7A U8C G9A U10A C13G], which “aptazyme ON/OFF ratio” value is on record?
Answer: 1.07

Question: Which “aptazyme ON/OFF ratio” value does the source give for GGGUCGGUGUGCUAUAAUCGCGUGGAUAUGGCACGCAAGUUUCUACCGGGCACCGUAAAUGUCCGACUGGAGCCGUUCGGGCGGCUAUAAACAGACCUCAGGCCCGAAGCGUGGCGGCACCUGCCGCCGGUGGUAAAAAAGAUCGGAAGAGCACACGUCU [U7G U11G C13U] here?
Answer: 1.1

Question: For GGGUCGGGUAGAAAUAAUCGCGUGGAUAUGGCACGCAAGUUUCUACCGGGCACCGUAAAUGUCCGACUGGAGCCGUUCGGGCGGCUAUAAACAGACCUCAGGCCCGAAGCGUGGCGGCACCUGCCGCCGGUGGUAAAAAAGAUCGGAAGAGCACACGUCU [U7G U8G G9U U10A U11G C12A C13A], which “aptazyme ON/OFF ratio” value is on record?
Answer: 1.1

Question: For GGGUCGCGAUAACAUAAUCGCGUGGAUAUGGCACGCAAGUUUCUACCGGGCACCGUAAAUGUCCGACUGGAGCCGUUCGGGCGGCUAUAAACAGACCUCAGGCCCGAAGCGUGGCGGCACCUGCCGCCGGUGGUAAAAAAGAUCGGAAGAGCACACGUCU [U7C U8G G9A U11A C12A], which “aptazyme ON/OFF ratio” value is on record?
Answer: 1.29

Question: For GGGUCGGUAACUAAUAAUCGCGUGGAUAUGGCACGCAAGUUUCUACCGGGCACCGUAAAUGUCCGACUGGAGCCGUUCGGGCGGCUAUAAACAGACCUCAGGCCCGAAGCGUGGCGGCACCUGCCGCCGGUGGUAAAAAAGAUCGGAAGAGCACACGUCU [U7G G9A U10A U11C C12U C13A], which “aptazyme ON/OFF ratio” value is on record?
Answer: 1.15

Question: For GGGUCGACCUCGAAUAAUCGCGUGGAUAUGGCACGCAAGUUUCUACCGGGCACCGUAAAUGUCCGACUGGAGCCGUUCGGGCGGCUAUAAACAGACCUCAGGCCCGAAGCGUGGCGGCACCUGCCGCCGGUGGUAAAAAAGAUCGGAAGAGCACACGUCU [U7A U8C G9C U11C C12G C13A], which “aptazyme ON/OFF ratio” value is on record?
Answer: 1.07

Question: With GGGUCGAGCAUGGAUAAUCGCGUGGAUAUGGCACGCAAGUUUCUACCGGGCACCGUAAAUGUCCGACUGGAGCCGUUCGGGCGGCUAUAAACAGACCUCAGGCCCGAAGCGUGGCGGCACCUGCCGCCGGUGGUAAAAAAGAUCGGAAGAGCACACGUCU [U7A U8G G9C U10A C12G C13G] as the variant, how does the “aptazyme ON/OFF ratio” value read?
Answer: 1.28

Question: For GGGUCGUAAAUAAAUAAUCGCGUGGAUAUGGCACGCAAGUUUCUACCGGGCACCGUAAAUGUCCGACUGGAGCCGUUCGGGCGGCUAUAAACAGACCUCAGGCCCGAAGCGUGGCGGCACCUGCCGCCGGUGGUAAAAAAGAUCGGAAGAGCACACGUCU [U8A G9A U10A C12A C13A], which “aptazyme ON/OFF ratio” value is on record?
Answer: 1.17

Question: Which “aptazyme ON/OFF ratio” value does the source give for GGGUCGGAAAAUGAUAAUCGCGUGGAUAUGGCACGCAAGUUUCUACCGGGCACCGUAAAUGUCCGACUGGAGCCGUUCGGGCGGCUAUAAACAGACCUCAGGCCCGAAGCGUGGCGGCACCUGCCGCCGGUGGUAAAAAAGAUCGGAAGAGCACACGUCU [U7G U8A G9A U10A U11A C12U C13G] here?
Answer: 1.12

Question: Which “aptazyme ON/OFF ratio” value does the source give for GGGUCGGAGCGUAAUAAUCGCGUGGAUAUGGCACGCAAGUUUCUACCGGGCACCGUAAAUGUCCGACUGGAGCCGUUCGGGCGGCUAUAAACAGACCUCAGGCCCGAAGCGUGGCGGCACCUGCCGCCGGUGGUAAAAAAGAUCGGAAGAGCACACGUCU [U7G U8A U10C U11G C12U C13A] here?
Answer: 1.2

Question: With GGGUCGAGUAGGUAUAAUCGCGUGGAUAUGGCACGCAAGUUUCUACCGGGCACCGUAAAUGUCCGACUGGAGCCGUUCGGGCGGCUAUAAACAGACCUCAGGCCCGAAGCGUGGCGGCACCUGCCGCCGGUGGUAAAAAAGAUCGGAAGAGCACACGUCU [U7A U8G G9U U10A U11G C12G C13U] as the variant, how does the “aptazyme ON/OFF ratio” value read?
Answer: 1.52

Question: For GGGUCGUUGACCCAUAAUCGCGUGGAUAUGGCACGCAAGUUUCUACCGGGCACCGUAAAUGUCCGACUGGAGCCGUUCGGGCGGCUAUAAACAGACCUCAGGCCCGAAGCGUGGCGGCACCUGCCGCCGGUGGUAAAAAAGAUCGGAAGAGCACACGUCU [U10A U11C], which “aptazyme ON/OFF ratio” value is on record?
Answer: 1.05

Question: With GGGUCGACGGGCCAUAAUCGCGUGGAUAUGGCACGCAAGUUUCUACCGGGCACCGUAAAUGUCCGACUGGAGCCGUUCGGGCGGCUAUAAACAGACCUCAGGCCCGAAGCGUGGCGGCACCUGCCGCCGGUGGUAAAAAAGAUCGGAAGAGCACACGUCU [U7A U8C U10G U11G] as the variant, how does the “aptazyme ON/OFF ratio” value read?
Answer: 1.4

Question: For GGGUCGGAAUUGUAUAAUCGCGUGGAUAUGGCACGCAAGUUUCUACCGGGCACCGUAAAUGUCCGACUGGAGCCGUUCGGGCGGCUAUAAACAGACCUCAGGCCCGAAGCGUGGCGGCACCUGCCGCCGGUGGUAAAAAAGAUCGGAAGAGCACACGUCU [U7G U8A G9A C12G C13U], which “aptazyme ON/OFF ratio” value is on record?
Answer: 1.11

Question: For GGGUCGGAUUCUAAUAAUCGCGUGGAUAUGGCACGCAAGUUUCUACCGGGCACCGUAAAUGUCCGACUGGAGCCGUUCGGGCGGCUAUAAACAGACCUCAGGCCCGAAGCGUGGCGGCACCUGCCGCCGGUGGUAAAAAAGAUCGGAAGAGCACACGUCU [U7G U8A G9U U11C C12U C13A], which “aptazyme ON/OFF ratio” value is on record?
Answer: 1.1
